# Laboratory results reported in the supplement of paper PMC10567573.
# B1: MED27 (parent)
# chain: YNENVYTEDGKLDIWSKSNYQVFQ
# B2: ZBTB22 (parent)
# chain: AVLAASSPYFHDQVLLKGMTSISL
# Variants of: B1
# Assay: protein stability index of a GFP-peptide fusion (GPS, HEK-293T) (PSI 1-6); higher = more stable
# Settings: c terminus: a fixed tail appended
# 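Further: lentivirally expressed fusions sorted by FACS into six bins by GFP to DsRed ratio, PSI derived from sequencing read proportions per bin multiplied by bin number.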
row,Variant,protein stability index
1,YNENKYTEDGKLDIWSKSNYQVFQ [V5K],2.15
2,YNENDYTEDGKLDIWSKSNYQVFQ [V5D],3.26
3,YNENTYTEDGKLDIWSKSNYQVFQ [V5T],2.67
4,YNGNVYTEDGKLDIWSKSNYQVFQ [E3G],2.34
5,YNWNVYTEDGKLDIWSKSNYQVFQ [E3W],1.44
6,YNRNVYTEDGKLDIWSKSNYQVFQ [E3R],1.41
7,YNTNVYTEDGKLDIWSKSNYQVFQ [E3T],1.88
8,YNKNVYTEDGKLDIWSKSNYQVFQ [E3K],2.31
9,YNANVYTEDGKLDIWSKSNYQVFQ [E3A],1.88
10,YNFNVYTEDGKLDIWSKSNYQVFQ [E3F],1.8
11,YNSNVYTEDGKLDIWSKSNYQVFQ [E3S],1.76
12,YNINVYTEDGKLDIWSKSNYQVFQ [E3I],1.81
13,YNHNVYTEDGKLDIWSKSNYQVFQ [E3H],1.92
14,YNLNVYTEDGKLDIWSKSNYQVFQ [E3L],1.48
15,YNPNVYTEDGKLDIWSKSNYQVFQ [E3P],1.31
16,YNQNVYTEDGKLDIWSKSNYQVFQ [E3Q],2.17
17,YNCNVYTEDGKLDIWSKSNYQVFQ [E3C],2.04
18,YNVNVYTEDGKLDIWSKSNYQVFQ [E3V],1.69
19,YNMNVYTEDGKLDIWSKSNYQVFQ [E3M],1.59
20,YNDNVYTEDGKLDIWSKSNYQVFQ [E3D],1.48
21,YNYNVYTEDGKLDIWSKSNYQVFQ [E3Y],1.64

row,Variant,protein stability index
1,YNNNVYTEDGKLDIWSKSNYQVFQ [E3N],2.36
2,YNENVMTEDGKLDIWSKSNYQVFQ [Y6M],2.17
3,YNENVITEDGKLDIWSKSNYQVFQ [Y6I],2.43
4,YNENVETEDGKLDIWSKSNYQVFQ [Y6E],3.17
5,YNENVGTEDGKLDIWSKSNYQVFQ [Y6G],2.57
6,YNENVDTEDGKLDIWSKSNYQVFQ [Y6D],3.3
7,YNENVLTEDGKLDIWSKSNYQVFQ [Y6L],2.38
8,YNENVVTEDGKLDIWSKSNYQVFQ [Y6V],3.02
9,YNENVSTEDGKLDIWSKSNYQVFQ [Y6S],3.26
10,YNENVQTEDGKLDIWSKSNYQVFQ [Y6Q],2.76
11,YNENVPTEDGKLDIWSKSNYQVFQ [Y6P],2.68
12,YNENVNTEDGKLDIWSKSNYQVFQ [Y6N],3
13,YNENVHTEDGKLDIWSKSNYQVFQ [Y6H],2.95
14,YNENVRTEDGKLDIWSKSNYQVFQ [Y6R],2.48
15,YNENVWTEDGKLDIWSKSNYQVFQ [Y6W],2.04
16,YNENVTTEDGKLDIWSKSNYQVFQ [Y6T],2.98
17,YNENVFTEDGKLDIWSKSNYQVFQ [Y6F],2.55
18,YNENVCTEDGKLDIWSKSNYQVFQ [Y6C],2.84
19,YNENVKTEDGKLDIWSKSNYQVFQ [Y6K],2.34
20,YNENVATEDGKLDIWSKSNYQVFQ [Y6A],2.62

# Variants of: B2
# Assay: as above
# Settings: c terminus: a fixed tail appended
row,Variant,protein stability index
1,AVLAASSPYFHDQVLLKGMTSIPL [S23P],3.55
2,AVLAASSPYFHDQVLLKGMTSIFL [S23F],4.12
3,AVLAASSPYFHDQVLLKGMTSIML [S23M],1.86
4,AVLAASSPYFHDQVLLKGMTSIWL [S23W],2.97
5,AVLAASSPYFHDQVLLKGMTSIIL [S23I],2.51
6,AVLAASSPYFHDQVLLKGMTSIHL [S23H],2.46
7,AVLAASSPYFHDQVLLKGMTSITL [S23T],1.22
8,AVLAASSPYFHDQVLLKGMTSIGL [S23G],3.35
9,AVLAASSPYFHDQVLLKGMTSICL [S23C],1.95
10,AVLAASSPYFHDQVLLKGMTSIDL [S23D],1.3
11,AVLAASSPYFHDQVLLKGMTSIEL [S23E],2.57
12,AVLAASSPYFHDQVLLKGMTSILL [S23L],2.64
13,AVLAASSPYFHDQVLLKGMTSIKL [S23K],2.8
14,AVLAASSPYFHDQVLLKGMVSISL [T20V],4.26
15,AVLAASSPYFHDQVLLKGMTSHSL [I22H],2.43
16,AVLAASSPYFHDQVLLKGMTSQSL [I22Q],1.09
17,AVLAASSPYFHDQVLLKGMTSCSL [I22C],1.83
18,AVLAASSPYFHDQVLLKGMTSSSL [I22S],1.29
19,AVLAASSPYFHDQVLLKGMTSTSL [I22T],2.75
20,AVLAASSPYFHDQVLLKGMTSESL [I22E],4.43
21,AVLAASSPYFHDQVLLKGMTSNSL [I22N],1.44
22,AVLAASSPYFHDQVLLKGMTSASL [I22A],3.31
23,AVLAASSPYFHDQVLLKGMTSGSL [I22G],2.4
24,AVLAASSPYFHDQVLLKGMTSKSL [I22K],2.13
25,AVLAASSPYFHDQVLLKGMTSDSL [I22D],1.66
26,AVLAASSPYFHDQVLLKGMTSYSL [I22Y],3.76
27,AVLAASSPYFHDQVLLKGMTSPSL [I22P],1.72

row,Variant,protein stability index
1,AVLAASSPYFHDQVLLKGMTSISD [L24D],1.76
2,AVLAASSPYFHDQVLLKGMTSISY [L24Y],3.14
3,AVLAASSPYFHDQVLLKGMTSISK [L24K],1.95
4,AVLAASSPYFHDQVLLKGMTSISF [L24F],3.47
5,AVLAASSPYFHDQVLLKGMTSIST [L24T],1.27
6,AVLAASSPYFHDQVLLKGMTSISI [L24I],3.01
7,AVLAASSPYFHDQVLLKGMTSISP [L24P],1.62
8,AVLAASSPYFHDQVLLKGMTSISQ [L24Q],1.7
9,AVLAASSPYFHDQVLLKGMTSISH [L24H],1.95
10,AVLAASSPYFHDQVLLKGMTSISS [L24S],1.15
11,AVLAASSPYFHDQVLLKGMTSISE [L24E],1.52
12,AVLAASSPYFHDQVLLKGMTSISN [L24N],1.83
13,AVLAASSPYFHDQVLLKGMTSISR [L24R],1.84
14,AVLAASSPYFHDQVLLKGMTSISV [L24V],1.53
15,AVLAASSPYFHDQVLLKGMTSISA [L24A],1.58
16,AVLAASSPYFHDQVLLKGMTYISL [S21Y],3.85
17,AVLAASSPYFHDQVLLKGMTQISL [S21Q],2.67
18,AVLAASSPYFHDQVLLKGMTLISL [S21L],3.04
19,AVLAASSPYFHDQVLLKGMTNISL [S21N],2.11
20,AVLAASSPYFHDQVLLKGMTGISL [S21G],2.85
21,AVLAASSPYFHDQVLLKGMTCISL [S21C],3.52
22,AVLAASSPYFHDQVLLKGMTEISL [S21E],1.95
23,AVLAASSPYFHDQVLLKGMTKISL [S21K],2.35
24,AVLAASSPYFHDQVLLKGMTFISL [S21F],2.52
25,AVLAASSPYFHDQVLLKGMTAISL [S21A],2.04
26,AVLAASSPYFHDQVLLKGMTDISL [S21D],2.17
